The target in experiment [1] is T1, recombinant rat IL-27 (rat, UniProt D3ZPW3 29-234; M0RD76 19-228).
T1 sequence (alpha): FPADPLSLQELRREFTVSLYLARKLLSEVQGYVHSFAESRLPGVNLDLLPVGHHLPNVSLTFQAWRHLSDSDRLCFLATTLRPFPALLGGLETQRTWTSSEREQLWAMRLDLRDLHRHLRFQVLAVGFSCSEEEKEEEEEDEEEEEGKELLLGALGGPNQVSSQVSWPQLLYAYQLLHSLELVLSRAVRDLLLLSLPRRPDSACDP
T1 sequence (beta): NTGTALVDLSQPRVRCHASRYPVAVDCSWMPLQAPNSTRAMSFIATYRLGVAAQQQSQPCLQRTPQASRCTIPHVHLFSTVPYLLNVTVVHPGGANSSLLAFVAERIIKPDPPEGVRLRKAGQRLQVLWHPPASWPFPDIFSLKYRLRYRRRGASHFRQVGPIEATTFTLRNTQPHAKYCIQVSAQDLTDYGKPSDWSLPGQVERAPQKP
As to the kind of experiment: cell-based or functional assay.

Experiment [2] addresses T2, recombinant mouse IL-27 (mouse, UniProt O35228 19-228; Q8K3I6 29-234, limits assumed).
T2 sequence (looked up) 1: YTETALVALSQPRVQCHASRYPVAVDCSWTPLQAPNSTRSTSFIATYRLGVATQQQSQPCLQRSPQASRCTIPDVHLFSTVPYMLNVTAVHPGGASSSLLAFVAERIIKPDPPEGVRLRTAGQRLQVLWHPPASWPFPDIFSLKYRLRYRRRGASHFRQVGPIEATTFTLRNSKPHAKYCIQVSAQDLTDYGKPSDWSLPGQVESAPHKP
T2 sequence (looked up) 2: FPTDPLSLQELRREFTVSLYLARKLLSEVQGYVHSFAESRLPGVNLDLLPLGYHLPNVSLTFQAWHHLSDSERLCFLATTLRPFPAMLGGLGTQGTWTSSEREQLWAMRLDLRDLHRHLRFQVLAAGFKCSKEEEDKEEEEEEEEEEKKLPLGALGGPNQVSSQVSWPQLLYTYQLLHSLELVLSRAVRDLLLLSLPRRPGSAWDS
As to the kind of experiment: cell-based or functional assay.

The target of experiment [3] is T3, recombinant human IL-27 (human, UniProt Q14213 21-229; Q8NEV9 29-243).
T3 sequence 1: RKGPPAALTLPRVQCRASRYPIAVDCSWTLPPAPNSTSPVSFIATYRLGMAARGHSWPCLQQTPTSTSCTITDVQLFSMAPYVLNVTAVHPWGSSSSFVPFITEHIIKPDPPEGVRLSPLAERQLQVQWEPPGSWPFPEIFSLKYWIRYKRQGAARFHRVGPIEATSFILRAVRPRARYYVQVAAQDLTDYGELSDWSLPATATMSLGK
T3 sequence 2: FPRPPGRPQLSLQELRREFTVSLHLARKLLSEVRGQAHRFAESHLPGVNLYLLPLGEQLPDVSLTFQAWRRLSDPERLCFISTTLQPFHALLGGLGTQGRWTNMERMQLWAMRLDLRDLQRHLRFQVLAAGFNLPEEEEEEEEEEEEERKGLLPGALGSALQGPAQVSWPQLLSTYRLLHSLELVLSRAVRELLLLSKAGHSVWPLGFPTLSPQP
As to the kind of experiment: cell-based or functional assay.

Experiment [4] has as its target T4, recombinant cynomolgus monkey IL-27 (cynomolgus monkey, UniProt A0A2K5WPB7 36-244; A0A2K5UBM6 29-244).
T4 sequence 1: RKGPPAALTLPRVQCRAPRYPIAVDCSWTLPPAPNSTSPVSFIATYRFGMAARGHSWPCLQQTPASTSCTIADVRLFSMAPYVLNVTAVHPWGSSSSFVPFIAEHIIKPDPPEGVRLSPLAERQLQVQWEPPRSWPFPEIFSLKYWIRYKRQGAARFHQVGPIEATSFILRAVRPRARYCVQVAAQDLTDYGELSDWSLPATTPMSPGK
T4 sequence 2: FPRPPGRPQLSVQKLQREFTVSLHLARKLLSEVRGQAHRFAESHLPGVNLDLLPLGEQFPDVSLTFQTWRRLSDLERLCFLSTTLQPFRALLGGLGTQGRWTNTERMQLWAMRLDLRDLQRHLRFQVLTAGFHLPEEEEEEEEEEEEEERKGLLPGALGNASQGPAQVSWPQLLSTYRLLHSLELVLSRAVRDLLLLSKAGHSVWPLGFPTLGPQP
As to the kind of experiment: cell-based or functional assay.

In experiment [5] the target is T1, recombinant rat IL-27. As to the kind of experiment: binding kinetics, SRF388 with IL-27 as analyte (instrument not named).
Experiment [6] addresses T2, recombinant mouse IL-27. Described as above.
The target in experiment [7] is T4, recombinant cynomolgus monkey IL-27. The description is as above.
For experiment [8], the target named is T3, recombinant human IL-27. As to the kind of experiment: cell-based or functional assay. The source holds these as a separate data set.
Experiment [9] addresses T3, recombinant human IL-27. As to the kind of experiment: binding kinetics, SRF388 at 1 ug/mL, IL-27 as analyte at 0 to 5.0 ug/mL (instrument not named). Here is the method:
The association and dissociation of recombinant human IL-27 at concentrations ranging from 0 to 5.0 μg/mL with an SRF388 concentration of 1 μg/mL were determined.

Experiment [10] addresses T2, recombinant mouse IL-27. As to the kind of experiment: column 'Affinity mIL-27 (M)'; method not given.
Experiment [11] has as its target T3, recombinant human IL-27. As to the kind of experiment: column 'Affinity hIL-27 (M)', property (i); method not given, paragraph 885 names SPR (BIACORE 2000).
The target of experiment [12] is T3, recombinant human IL-27. As to the kind of experiment: SPR (BIACORE 2000) as the paragraph says; values in FIG. 9.
The target of the next experiment is T5, p28 subunit of IL-27 (Homo sapiens (Human), UniProt Q8NEV9 29-243, limits assumed).
T5 construct: the reagent used in the specificity studies is not described; also called IL-27p28
T5 sequence: T3 sequence 2
As to the kind of experiment: biochemical affinity and specificity studies.

The target of a further experiment is T6, EBI3 subunit of IL-27 (Homo sapiens (Human), UniProt Q14213 21-229, limits assumed).
T6 construct: the reagent used in the specificity studies is not described
T6 sequence: T3 sequence 1
Briefly: biochemical affinity and specificity studies.

B1: SRF388 (antibody, V domains shown)
VH: EVQLVESGGGLVKPGGSLRLSCAASGFTFRSYGMNWVRQAPGKGLEWVSGISSSGSYIYYADSVKGRFTISRDNAKNSLYLQMNSLRAEDTAVYYCARDGGRTSYTATAHNWFDPWGQGTLVTVSS
VL: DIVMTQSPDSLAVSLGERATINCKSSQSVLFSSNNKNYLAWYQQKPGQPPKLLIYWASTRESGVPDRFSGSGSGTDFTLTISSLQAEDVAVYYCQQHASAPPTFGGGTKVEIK
notes: also called SRF388-A; SRF388-B
For orientation: Kd means the equilibrium constant for the complex coming apart. For orientation: koff means a measure of how fast the partners let go of each other. A word on the kon: it is the second-order rate constant of association. Regarding B1, the “Average IC50, pSTAT1 in peripheral blood T cells, rat whole blood” value in the experiment with recombinant rat IL-27 [1] was 273 ng/mL. The “Average IC50, pSTAT1 in peripheral blood T cells, mouse whole blood” value with recombinant mouse IL-27 [2] was 1720 ng/mL. The “Average IC50, pSTAT1 in peripheral blood T cells, human whole blood” value with recombinant human IL-27 [3] was 78.4 ng/mL. Besides, in experiment [4], the “Average IC50, pSTAT1 in peripheral blood T cells, cynomolgus monkey whole blood” value came out at 118 ng/mL. Moreover, the Kd stood at 0.0809 nM with recombinant rat IL-27 [5]; 4.43 nM with recombinant mouse IL-27 [6]; 0.0374 nM in [7]; 0.00386 nM with recombinant human IL-27 [9]; 0.594 nM with recombinant mouse IL-27 [10]; 0.0013 nM with recombinant human IL-27 [11]. Moreover, in the experiment with recombinant human IL-27 [12], the Kd was no more than 15 nM. Also, the koff with recombinant rat IL-27 [5] came to 0.000189 s⁻¹; with recombinant mouse IL-27 [6], 0.000244 s⁻¹; in experiment [7], 1.19e-05 s⁻¹; with recombinant human IL-27 [9] it was 1.97e-06 s⁻¹. The kon in the experiment with recombinant rat IL-27 [5] came to 2.34e+06 M⁻¹ s⁻¹; with recombinant mouse IL-27 [6], 55000 M⁻¹ s⁻¹; in experiment [7], 318000 M⁻¹ s⁻¹; with recombinant human IL-27 [9] it was 510000 M⁻¹ s⁻¹. Further, the “IC50 of inhibition of phosphorylation of STAT1 in HUT-78 cells” value in the experiment with recombinant human IL-27 [8] came out at 0.095 µg/mL. Besides, the “IC50 of inhibition of phosphorylation of STAT1 in U937 cells” value with recombinant human IL-27 [8] came out at 0.096 µg/mL. Also, the “IC50 of inhibition of phosphorylation of STAT1 in pooled human PBMCs” value with recombinant human IL-27 [8] came out at 0.0583 µg/mL. Moreover, the results for the binding result with p28 subunit of IL-27 and in the experiment with EBI3 subunit of IL-27 were “binds” and “no binding”, respectively.

(Values after patent US20190382474A1 (SURFACE ONCOLOGY, published 2019).)
